Results published in ChEMBL document CHEMBL2074203, “Multidrug resistance protein MRP1 protects against the toxicity of the major lipid peroxidation product 4-hydroxynonenal” (Biochem J, 2000).

Substrate: CCCCCC1OC(O)CC1SC[C@H](NC(=O)CC[C@H](N)C(=O)O)C(=O)NCC(=O)O
Experiment: TP_TRANSPORTER: uptake in membrane vesicle from MRP1-expressing High Five insect cells
Format: functional, cell membranes, BTI-TN-5B1-4

B1: Multidrug resistance-associated protein 1 (Homo sapiens) (protein)
chain: MALRGFCSADGSDPLWDWNVTWNTSNPDFTKCFQNTVLVWVPCFYLWACFPFYFLYLSRHDRGYIQMTPLNKTKTALGFLLWIVCWADLFYSFWERSRGIFLAPVFLVSPTLLGITMLLATFLIQLERRKGVQSSGIMLTFWLVALVCALAILRSKIMTALKEDAQVDLFRDITFYVYFSLLLIQLVLSCFSDRSPLFSETIHDPNPCPESSASFLSRITFWWITGLIVRGYRQPLEGSDLWSLNKEDTSEQVVPVLVKNWKKECAKTRKQPVKVVYSSKDPAQPKESSKVDANEEVEALIVKSPQKEWNPSLFKVLYKTFGPYFLMSFFFKAIHDLMMFSGPQILKLLIKFVNDTKAPDWQGYFYTVLLFVTACLQTLVLHQYFHICFVSGMRIKTAVIGAVYRKALVITNSARKSSTVGEIVNLMSVDAQRFMDLATYINMIWSAPLQVILALYLLWLNLGPSVLAGVAVMVLMVPVNAVMAMKTKTYQVAHMKSKDNRIKLMNEILNGIKVLKLYAWELAFKDKVLAIRQEELKVLKKSAYLSAVGTFTWVCTPFLVALCTFAVYVTIDENNILDAQTAFVSLALFNILRFPLNILPMVISSIVQASVSLKRLRIFLSHEELEPDSIERRPVKDGGGTNSITVRNATFTWARSDPPTLNGITFSIPEGALVAVVGQVGCGKSSLLSALLAEMDKVEGHVAIKGSVAYVPQQAWIQNDSLRENILFGCQLEEPYYRSVIQACALLPDLEILPSGDRTEIGEKGVNLSGGQKQRVSLARAVYSNADIYLFDDPLSAVDAHVGKHIFENVIGPKGMLKNKTRILVTHSMSYLPQVDVIIVMSGGKISEMGSYQELLARDGAFAEFLRTYASTEQEQDAEENGVTGVSGPGKEAKQMENGMLVTDSAGKQLQRQLSSSSSYSGDISRHHNSTAELQKAEAKKEETWKLMEADKAQTGQVKLSVYWDYMKAIGLFISFLSIFLFMCNHVSALASNYWLSLWTDDPIVNGTQEHTKVRLSVYGALGISQGIAVFGYSMAVSIGGILASRCLHVDLLHSILRSPMSFFERTPSGNLVNRFSKELDTVDSMIPEVIKMFMGSLFNVIGACIVILLATPIAAIIIPPLGLIYFFVQRFYVASSRQLKRLESVSRSPVYSHFNETLLGVSVIRAFEEQERFIHQSDLKVDENQKAYYPSIVANRWLAVRLECVGNCIVLFAALFAVISRHSLSAGLVGLSVSYSLQVTTYLNWLVRMSSEMETNIVAVERLKEYSETEKEAPWQIQETAPPSSWPQVGRVEFRNYCLRYREDLDFVLRHINVTINGGEKVGIVGRTGAGKSSLTLGLFRINESAEGEIIIDGINIAKIGLHDLRFKITIIPQDPVLFSGSLRMNLDPFSQYSDEEVWTSLELAHLKDFVSALPDKLDHECAEGGENLSVGQRQLVCLARALLRKTKILVLDEATAAVDLETDDLIQSTIRTQFEDCTVLTIAHRLNTIMDYTRVIVLDKGEIQEYGAPSDLLQQRGLFYSMAKDAGLV
  Km: 1.6 µM
